This data set can be described thus: label from the status in PepcDB records.
As for “MSASRRSGTTDELGPDGPDPERDGPDGADLLAALLDGMDAALCAFDADGVVTHWNREAERILGWTAAEAVGRRGFAGWAVRTADAEDVEARLMTAMQAPGRQVHEFALLTKDGGRVLVRTQSAAVHGPDGKPAGVYCAFSEVHTQIDLERSIALSEALFEDASWGVVLVDADLRPAVVNAHAARALGTGRTTVLGRPLGDLLSQGVEELESALTHVLAEGAPPAPAEMWVSVRTAEGEKRRCWRSGFLRLASPLAEEPVPLGVGWLFQDITEAKQTEQEAALLRFRTNQLHRAARAAAECEDPGEAATVHLDFSLAGFADHALIDRVAGGPVADGDRDGDGPPVRLVRAADTPSGAPGPSLLVGKAELPVWYAEGHPALQCVERAGSVRASAGVSDAERAREWAISRQWPGDAVHALCAVLRSRGRTLGVVTFLRGAGRSQFERADAVYAEDVAVRIAAALDLAGLAGLAGPAGER”, the protein production result is given as “failed”.

As for “MDPLLLIGAITAGGVLIGGGVHFVPVGGAPAAMATATGVGTGTAMLAAGAGLTGLITAAAMTGQSPLMIMAAGAVGSMLMIGITMLVGNLIYVYGVGTVPVSAKVAVDPLTGMEQEKYVTPGTEGHGLPTVCFVSGIIGGALGGIGGGLIYWALNEALKTLSYGAIGAAGVAAIFAVGIFFINAVIASYNIGGTIEGFHDPKFKRIGRGIVACLIASIVAGALSTLLVYGGVF”, the protein production result is on record as “failed”.

As to “MAYFYLAEAGDWSFRTVWHDRFFTVLKHHPARTEKVEQADYIFLDADFALETNWPYYGSQRKAILKGDRFPTDEEILAFLFDHPVSGYGKPLVLINMNPLAQWPAIAQVLPDVVVVSHCHTLGNYRVGIDVSFPPMPLLDQHCYPSRDRSTLLSFRGANSHPVREQLQRLHQPPEIAAELIQQSYWGTLNYVDEAEGLSAEQQVYTDLIARSRFSVAPRGHDIFSYRLLEVMAGGAIPVILADDWVLPFSELLDWSEFSLSVAEDRCWELPQLLQAISTDQWQVMQQHLQQVYQHYFYSLARQVQTLWQILDQRSLHPSASEVEIEAVLLSQAERYRLKGDLEAAATYLATLPRSPARILEQARLALTQQQPKAALALLDSMVMPEAEQGEHYNLLGVAQTQLGEWDTAIAIYRQGLQAQPHHPKLRTNLCVALRQQEQWEEALALSQALLEEVPAAIDRLLLQADTLNLAGRYDQALSLYQQVVAREPERANAQLAIAEILLRQGKAEGWDIYEARFAAEPSLAALAAHYPQPRWQGVELGQRSLLVWGEQGYGDQIQFSRYLWVLRDRYPQARIQFQTDAVLVPLFAEPLASLGIKVIPAQITEELFDFQVPLLSLPRLVWPSLKDIPYREGWLPCPLPPPREDQNHKFRVGIVWLAGQRAGIQKSATADRRSCSLEAMLELVRESMQRSDLEVVSLQLGYEGRLPEGIQDWSNRLVDFSATARVLMELDLLVTVDTAIVHLAGAMGTPAKVLLAYPPDWRWQQNLELTWYSSIELCYFAHLLSSF”, the protein production result was “failed”.

“VIRDLQKLLASMEPSLNPGTYAFVVAPADIQIPQDQIVASVCEPEGQSLVIPEQLAHERGLPVTYSAAWITLTVHSDLAAVGLTATFAGALGQAGISCNVIAGVHHDHLFVPADQAQQAMAVLFDLQRAAA”: the protein production entry is listed as “failed”.

In the case of “MSLLTLAFNPQPRAKTYCSGPILRVSGVWAVKILYIVLDGAADSPTSPRKTLEEASKPNIDSLGSHAVCGMVYTVKPGVAPQSDYATLSLLGYNPDEYYPGRGPLEAFGAGIEMRRGDIALRANFATVDPGTLRIIDRRVGRSLTSREARELASAVDGMELEDGEGTALFRATIGHRGVLVLRHRSKPLSDAISNTDPAYERRGRFSVALEKYEPFIKLSNPLVEDEAAVLAARMLNEFTLKAVEILDSHPVNLAREKRGLLKANAILSRDAGGLPEEKPPSFQERFGLRGASIVEMVVERGISRYIGLDDIRVEIEGRAREEVYREEAARAVEALETHDLVYVHLKGPDEPGHDGSFEGKIRAVEDIDKHFFAPLLDRLSSAGLEPAFVVTSDHATPWDVGAHSGDPVPLMISHQSIQGSIGKFSETVCLRGRLGTIIGGYRIIPKTLSLLAGLEHHHHHH”, the protein production entry is given as “not failed”.

In the case of “MSNLISRILTALIFGFITLCLTWVGGTLFFLFVWVIGGFILYEWMSITKEKWHVLQKILASVFYLVFGAFLISNASASLIFCILIALAALLAIGPMRKSVWVFFGFLYVCFPVVALSFLRGHEPLGFWVVIFLFTIVWGTDIAGYFSGRAFGGPKLAPQFSPNKTWMGAIGGTFVGVSGGILIAFQFFDLNSAVFFVLLLALILSIVSQMSDLGQSWLKRQFSVKDSGSLLPGHGGFMDRMDGLVGAAFLLYLIGSFMSNMDTPFNLFCMV”, the protein production result was “failed”.

For the sequence “MEKKLKRRESMSTTAAESPPAKRRRTVTGNENSALIEGLPDHISEICLSLVHRPSLLSAVCTRWRRLLYSPEFPSFPSLYALFVDSTSDTGRVNPSVRFMCFNPVSSKWYPLPPPPPDPPLHRILYRHPSFISFNLPIQCVSAAGKLILIAGSNQQLSPAISHPLIFDPISSSWSSGPRIGSPRRWCATGACDGAIYIASGISSQFSSTVAKSVEKLDLTEQNRNNHRFNWEKLRDMRDLRFSREAIDAVGYRRKLLMVNVKGDAVKEGAIYDVVKDDWEPMPEEMLVGWRGPVAAMEEEILYSVDERRGTVRKYDDEKREWREVVVVEGGEEMLKGATQVTADSGKLCVVTGDGKIVVVDVAAEPAKIWNVEIPDGLEPVSVHVLPRMSQPNFC”, the protein production result is reported as “failed”.

“MSEVEQFATIALISLTAFISPLIADKLRVPVVVLEIVLGMIFGVSFLNVIYASEWLSFLSLFGLIFLMFLAGLEIDADVVLKSGHLKRVVAFFALSLALSVALTALMGLNLFYAIILTNVAVGVVVSVLREIGLEKEDFGQLNIVTALVSDFSTMFLLSIYFITGYLQVAFAFLIILVFLAAYRFGKLVIWHFPDFISRWFSDEPSEIGVRGSLAIMILFVGLSSLLGVEAILGAFLAGVLLSITFRGGKKLYDKLYGMGFGFFIPIFFIKTGSELNITQAGEGIGFILLLLAVSVAVKGIPSLIFASNFGLRRAISMGMLQSTKLSLTIAGVAIGVSSGVITEFESTALVTFTIISCLLSPTLFRFLYPRYLPKTR”: the protein production entry was “failed”.

For “MKLLNVLLLTTSLSVFYTYAETDYQWLRDDSRSEPAVKQFLAEHNRKTDHWFAPAKPLVQELVNEWQQTSQHKAPPPALIYANQQYNDIQWNGHRHIVKIGAQGQIEPLLNLSARAEPFDYYQLASWSLDRSVQSVALAEDTRGDEQFKLTIVRLADRTEQIVSETASTYFAWAADGKSLYYLSDLNGSTQLQRFELETGQSTRLAEWRSAEWLFSLYSASNPRYLVVQQNNENSTQQRLLDTQTGELMPWLRTTEPGLEYYADVLGETLYINSNHQGAFRLYRQPLHTKQDWQSVTTHKEIGSLSNFYLFDAGIVLVENQTLAPKVWVLDSQGEVRTHFELRDLGQVAWISRNGDAVSNRLRVRTMSMTEPASWHELDVAQLQWQQLSQDHYADFDPKQYQTQTVWVTQGAIQVPVTLAYRSDKLTPNSSVVLYGYGAYGVTMKPYFMPQIVSLLDRGMIYAIAHVRGGGYLGEAWHQAGAGLNKQNGIDDFLAAARYLTHFQQGERAIYTIGGSAGGTLVAAALNQQPNLFAGAVLQVPFVDVLASMSDTSQALTAQQYQEWGNPQQPEQRQVMQAYDPLSNLRAAPYPPTLVNVGWWDNRVPYWEGARYLARLSDVSQGAGPYLLSTDFQAGHASDRRQALEKQAREYAFFLTLDKTRKAGQ”, the protein production result is recorded as “failed”.

Turning to “MLNIKRIKKKMNARNLFATAALLFTASTAFAQTGVQTNTPFGSGEDSIRCRQNISLFTSYAKTGNYKDAYDFWEKAYEECPASTKNIYIYGVKISEWRLQNEQDPAKRQQIIDKILKLYDDRVKYFGEDPKYGTDYIMASKISDYMQYMGDKTDYDKVYEWIKPTIDQHGENATPRALFYYAYSSLNKAIRNEAWHETYIKDYTFASQAMEKQLEVADEKGKEFIQPLKTQIDELFAQSGLADCNTLVKMYGDKLEENKTDTTFLKNMLGMFHASDCETHPLYFQANKYLFAVQPSAIAAMGLAKEAMEGNRYNEASDYLQKAIELSKSAKDRAACNYTLGLLAMKQGSYSTARSYCNKALAEDPAMGDALILIAQMYAATANTVFPGDAIKARCVYFLAVDKLQRAKNIDPSCAPRANRLISQYSRNFPSPADVFMHPDLEKGKSLFVGGWIGESTVIR”, the protein production result is “failed”.

As for “MSTSTSCPIPGGRDQLPDCYSTTPGGTLYATTPGGTRIIYDRKFLLECKNSPIARTPPCCLPQIPGVTTPPTAPLSKLEELKEQETEEEIPDDAQFEMDI”, the protein production result is reported as “failed”.

Consider “MADGIYGSFENLKKHAGAMTLETYMRFNAKLSEAKDEMGAKEYEEFTKELKKLTNAKLAYGDSNGNIDYDGLSPAKREEMKKVSMGLQPYFDKLNGHKSSKEVLTQEEFDRYMEALMTHEIVRVKTKSTGAIKIEEVPEAYKERFIKAEQFMEYVDEKVR”, for which the protein production entry was “not failed”.

“MKSKWIFIQWFKYNNIRMKDESTNKFGSLNLAVLVLSVYVLGALIVDTTIKLPEETSRLLNYIDLAICIFFFVEFCIRLYHADSKMKFMRWGWIDLVSSIPMINFLRFGRVFRLIRLFRILRAFRTTKEFVTYVFRIKAQGAFTSATILAILLIIFSSIAILQVENASTSNITTAEDAIWWSYVTITTVGYGDKYPVTTEGRIIAMFLMTAGVGLFGTFTAYIASLFVSDNKKEETETKE”: the protein production entry is listed as “failed”.

In the case of “MSKHLCFTAFSSIALFLLCFSSWASAVAPAEINEARLVAQYNYSINILAMLLVGFGFLMVFVRRYGFSATTGTYLVVATGLPLYILLRANGIFGHALTPHSVDAVIYAEFAVATGLIAMGAVLGRLRVFQYALLALFIVPVYLLNEWLVLDNASGLTEGFQDSAGSIAIHAFGAYFGLGVSIALTTAAQRAQPIESDATSDRFSMLGSMVLWLFWPSFATAIVPFEQMPQTIVNTLLALCGATLATYFLSALFHKGKASIVDMANAALAGGVAIGSVCNIVGPVGAFVIGLLGGAISVVGFVFIQPMLESKAKTIDTCGVHNLHGLPGLLGGFSAILIVPGIAVAQLTGIGITLALALIGGVIAGALIKLTGTTKQAYEDSHEFIHLAGPEDEHKAERLVLEAKTEIQGLKNRIDAAVLSAKSEG”, the protein production result is listed as “not failed”.

As for “MPQTSSLLGIDALYQFTGAGAQLFSGALFYTVIVRFFSASQVGAVALFIAIIGLFNLIFSFGLGTAVQHFASYHLGRQEYATAKSIVFKILILGIIFSSIGLITMFYLAKPISITFMHTAQYTPIVKLLSIVLVGDVLFGLLNGSALGLQLFRASGLMNIIIWITYYSTALVLAFLLKSLYYVVVGWSVGIFLGVILYLYLIIKSTKNYKGRPRHLTPSLLFQFSIPVLLSSIISYGATYIDRFIVAGLMTLSALGVYNFALLVASSIGFIVAPLNNIMLPKFSEFYGEGNRENIKNRTAIATTVVAGVYVPAALGVAVLSKMIITLLAGKYYEEGSDAISIIMVFSALFVTSNVMTQLIAAVRETRVFIYSSAASLASNAILSIILIPHFGIEGASIGFSSIYAASFFVLYKYAKKTGFYQANVYDLAKVWGSSLVMVFVVLAFEVRFGTSIDLLVPYILLGAVVYLGMIKSTRLIHRNEALFLSSLFPQSMPFITKLIRLISSE”, the protein production result is reported as “failed”.

Consider “QSGATAKVSVLYIGPMEAPADAAQRLGLPAGTQVLARRRLYFRNGTPVETASSYLPWDVVKDIPELFAENPGGGGIYARLEDHGHEFAEFVETLQARPASKAEASELALSPGAPVVHLIREARTTAGVVVEVCDTLMAADQFVFEYRIPAAD”, for which the protein production result is recorded as “failed”.

Regarding “MYFEIYKDAKGEYRWRLKAANHEIIAQGEGYTSKQNCQHAVDLLKSTTAATPVKEVLEHHHHHH”, the protein production entry was “not failed”.

The values above are taken from a protein production outcome set (Wang et al. 2014).
